Results from IntAct's records for PubMed 18628306.

B1: Mitochondrial chaperone BCS1 (Homo sapiens), Q9Y276 (parent)
chain: MPLSDFILALKDNPYFGAGFGLVGVGTALALARKGVQLGLVAFRRHYMITLEVPARDRSYAWLLSWLTRHSTRTQHLSVETSYLQHESGRISTKFEFVPSPGNHFIWYRGKWIRVERSREMQMIDLQTGTPWESVTFTALGTDRKVFFNILEEARELALQQEEGKTVMYTAVGSEWRPFGYPRRRRPLNSVVLQQGLADRIVRDVQEFIDNPKWYTDRGIPYRRGYLLYGPPGCGKSSFITALAGELEHSICLLSLTDSSLSDDRLNHLLSVAPQQSLVLLEDVDAAFLSRDLAVENPVKYQGLGRLTFSGLLNALDGVASTEARIVFMTTNHVDRLDPALIRPGRVDLKEYVGYCSHWQLTQMFQRFYPGQAPSLAENFAEHVLRATNQISPAQVQGYFMLYKNDPVGAIHNAESLRR

Variants of: B1
Details: with letm1_human LETM1, O95202
Sequence of letm1_human LETM1, O95202 (O95202 whole entry): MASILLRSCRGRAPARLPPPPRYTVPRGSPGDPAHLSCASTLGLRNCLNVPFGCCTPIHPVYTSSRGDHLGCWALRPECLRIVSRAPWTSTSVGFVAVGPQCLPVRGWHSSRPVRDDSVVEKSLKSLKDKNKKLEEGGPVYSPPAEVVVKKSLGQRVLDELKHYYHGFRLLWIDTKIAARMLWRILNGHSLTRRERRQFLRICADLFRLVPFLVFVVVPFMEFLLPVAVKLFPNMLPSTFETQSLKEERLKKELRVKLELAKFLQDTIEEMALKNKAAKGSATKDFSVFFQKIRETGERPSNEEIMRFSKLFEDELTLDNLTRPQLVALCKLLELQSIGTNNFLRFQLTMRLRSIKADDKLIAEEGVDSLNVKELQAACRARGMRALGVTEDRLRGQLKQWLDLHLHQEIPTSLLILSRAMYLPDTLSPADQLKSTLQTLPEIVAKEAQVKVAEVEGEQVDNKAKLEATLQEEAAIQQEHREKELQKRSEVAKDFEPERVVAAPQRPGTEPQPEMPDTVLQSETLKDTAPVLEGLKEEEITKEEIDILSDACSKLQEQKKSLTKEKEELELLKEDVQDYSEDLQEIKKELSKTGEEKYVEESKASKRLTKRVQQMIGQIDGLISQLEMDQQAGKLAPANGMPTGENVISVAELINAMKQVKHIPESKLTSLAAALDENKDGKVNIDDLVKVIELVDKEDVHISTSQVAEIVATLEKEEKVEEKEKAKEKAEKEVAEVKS

Variant | effect of a mutation on the interaction
MPLSDFILALKDNPYFGAGFGLVGVGTALALARKGVQLGLVAFRRHYMITLEVPARDRSYAWLLSWLTRHSTRTQHLSVETSYLQHESGRISTKFEFVPSPGNHFIWYRGKWIRVERSREMQMIDLQTGTPWESVTFTALGTDRKVFFNILEEAPELALQQEEGKTVMYTAVGSEWRPFGYPRRRRPLNSVVLQQGLADRIVRDVQEFIDNPKWYTDRGIPYRRGYLLYGPPGCGKSSFITALAGELEHSICLLSLTDSSLSDDRLNHLLSVAPQQSLVLLEDVDAAFLSRDLAVENPVKYQGLGRLTFSGLLNALDGVASTEARIVFMTTNHVDRLDPALIRPGRVDLKEYVGYCSHWQLTQMFQRFYPGQAPSLAENFAEHVLRATNQISPAQVQGYFMLYKNDPVGAIHNAESLRR [R155P] | disrupting interaction
